According to PMC11286758, “The small CRL4^CSA ubiquitin ligase component DDA1 regulates transcription-coupled repair dynamics” (Nature Communications, 2024):

Biological target: T1, CSA-DDB1 (human, UniProt Q13216 1-396; Q16531 1-1140)
T1 construct: CSA, human, full-length coding gene; pAC8-CSA-Strep II clone; DDB1, human, full-length coding gene, synthesized and codon-optimized for insect cells; also called CSA/DDB1 complex; CSA-DDB1 alone; source: Sf9, co-expressed (biGBac), purified (Nickel-chelating sepharose, Resource Q, Superdex 200)
Assay: nano-differential scanning fluorimetry; complexes at 2 µM in 20 mM HEPES pH 7.5, 150 mM NaCl, 5% glycerol, 0.5 mM TCEP; Prometheus NT.48, 350/330 nm ratio, 1 °C/min from 20 to 90 °C; compared with CSA-DDB1 alone
Conditions: both partners purified

T1 sequence (Q13216 whole entry, chain 1 of 2): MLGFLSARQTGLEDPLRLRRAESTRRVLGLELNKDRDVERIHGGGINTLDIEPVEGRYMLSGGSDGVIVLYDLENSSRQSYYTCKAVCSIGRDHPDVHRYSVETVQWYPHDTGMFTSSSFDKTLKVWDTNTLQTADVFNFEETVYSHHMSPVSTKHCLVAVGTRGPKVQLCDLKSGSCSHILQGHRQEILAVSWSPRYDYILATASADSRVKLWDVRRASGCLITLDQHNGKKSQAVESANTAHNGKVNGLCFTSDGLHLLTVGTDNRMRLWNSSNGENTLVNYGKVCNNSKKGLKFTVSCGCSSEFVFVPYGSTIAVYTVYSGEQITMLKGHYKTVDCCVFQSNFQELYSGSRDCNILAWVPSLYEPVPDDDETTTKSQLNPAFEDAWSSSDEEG
T1 sequence (Q16531 whole entry, chain 2 of 2): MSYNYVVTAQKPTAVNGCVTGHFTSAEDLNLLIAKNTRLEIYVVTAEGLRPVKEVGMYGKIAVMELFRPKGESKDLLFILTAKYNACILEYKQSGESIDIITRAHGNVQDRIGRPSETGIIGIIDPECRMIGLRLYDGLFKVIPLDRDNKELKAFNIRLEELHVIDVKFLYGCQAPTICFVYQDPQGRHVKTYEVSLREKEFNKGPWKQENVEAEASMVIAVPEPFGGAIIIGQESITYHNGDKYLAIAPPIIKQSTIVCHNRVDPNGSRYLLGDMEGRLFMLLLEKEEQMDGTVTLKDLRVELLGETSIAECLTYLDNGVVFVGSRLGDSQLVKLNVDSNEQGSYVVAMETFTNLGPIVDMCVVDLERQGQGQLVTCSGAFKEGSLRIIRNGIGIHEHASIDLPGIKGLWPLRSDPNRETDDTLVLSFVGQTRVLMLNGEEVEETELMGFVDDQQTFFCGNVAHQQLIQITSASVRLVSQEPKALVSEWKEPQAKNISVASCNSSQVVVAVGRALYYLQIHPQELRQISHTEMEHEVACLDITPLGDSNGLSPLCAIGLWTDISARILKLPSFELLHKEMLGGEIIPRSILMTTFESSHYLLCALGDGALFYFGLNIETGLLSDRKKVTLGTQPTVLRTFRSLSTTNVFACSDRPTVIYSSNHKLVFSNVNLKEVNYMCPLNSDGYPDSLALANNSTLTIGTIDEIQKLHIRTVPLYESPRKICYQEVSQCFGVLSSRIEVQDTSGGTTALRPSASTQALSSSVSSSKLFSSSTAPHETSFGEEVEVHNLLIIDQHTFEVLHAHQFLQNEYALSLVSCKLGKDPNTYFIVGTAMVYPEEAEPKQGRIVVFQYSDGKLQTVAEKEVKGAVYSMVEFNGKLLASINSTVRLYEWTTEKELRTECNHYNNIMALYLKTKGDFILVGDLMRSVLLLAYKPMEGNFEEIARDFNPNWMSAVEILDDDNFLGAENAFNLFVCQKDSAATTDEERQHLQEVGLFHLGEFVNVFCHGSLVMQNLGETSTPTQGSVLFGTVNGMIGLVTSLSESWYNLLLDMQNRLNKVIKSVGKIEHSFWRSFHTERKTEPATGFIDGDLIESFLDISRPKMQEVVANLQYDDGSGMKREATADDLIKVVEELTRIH

binding result: binds
B1: DDA1^1-52 (domain or fragment)
chain: not shown
notes: DDA1, human, residues 1-52; Used as the complex CSA-DDB1-DDA1^1-52; also called DDA1 C-terminal truncation; DDA1Δ
